For three substances, Kd and stoichiometry N results are on record in paper PMC8184781, “A histone H3K4me1-specific binding protein is required for siRNA accumulation and DNA methylation at a subset of loci targeted by RNA-directed DNA methylation” (Nature Communications, 2021).

What all share (experiment): ITC; Microcal PEAQ-ITC, 20 °C; protein about 0.8–0.12 mM (so in the source), peptide about 1.0–1.5 mM; 100 mM NaCl, 20 mM HEPES, 2 mM β-mercaptoethanol (pH 7.0 in the methods, [7.4] in the footnote of Supplementary Table 1)
Assay [1] deals with RDM15 Tudor domain (residues 598-662) D645A (Arabidopsis thaliana).
In assay [2] the target is RDM15 Tudor domain (residues 598-662) Q654A (Arabidopsis thaliana).
Assay [3] concerns the target RDM15 Tudor domain (residues 598-662), wild type (Arabidopsis thaliana).

Turning to H3(1-15) K4me1 peptide, the Kd was determined as 62.7 µM in assay [1] and 60.8 µM in assay [2]. The stoichiometry N is 0.86 in assay [1], 1.08 in assay [2] and 0.96 in assay [3].
For the substance H3K4me2 peptide, in assay [3], the Kd was determined as 30.9 µM and the stoichiometry N is 1.03.
In assay [3], H3K4me3 peptide gave a Kd of 66.2 µM and a stoichiometry N of 0.9.
